These results are taken from patent US20230235078A1 (University of Texas, published 2023).

In assay [1] the target is Type I collagen. The assay can be described thus: ELISA on coated type I collagen with conditioned media.
Assay [2] concerns the target T1, Human DDR1 extracellular domain (ECD) protein (human, UniProt Q08345 21-417).
T1 construct: it is treated here as the same molecule; also called recombinant human DDR1 ECD; huDDR1 ECD; not shown: 6xHIS-tag
Kind of assay: titration ELISA on human DDR1. For orientation: ELISA stands for enzyme-linked immunosorbent assay.

In assay [3] the target is T2, mouse DDR1 ECD (mouse, UniProt Q03146 22-415).
T2 construct: extracellular domain; construct not described; also called mouse ECD
T2 sequence (looked up): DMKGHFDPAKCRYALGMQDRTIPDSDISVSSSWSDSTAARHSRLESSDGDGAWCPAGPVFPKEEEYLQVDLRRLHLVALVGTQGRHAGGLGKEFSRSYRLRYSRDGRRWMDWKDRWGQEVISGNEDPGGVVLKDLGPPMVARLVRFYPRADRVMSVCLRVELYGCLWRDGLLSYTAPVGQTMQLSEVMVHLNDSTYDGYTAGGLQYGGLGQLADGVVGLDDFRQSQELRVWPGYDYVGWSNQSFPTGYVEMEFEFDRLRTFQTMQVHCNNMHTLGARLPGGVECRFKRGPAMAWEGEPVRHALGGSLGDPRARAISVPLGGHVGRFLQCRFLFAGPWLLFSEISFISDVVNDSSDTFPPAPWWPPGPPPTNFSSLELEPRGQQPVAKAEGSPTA
Kind of assay: titration ELISA on mouse DDR1.

Assay [4] addresses T1, Human DDR1 extracellular domain (ECD) …. The assay can be described thus: titration ELISA; target not given, human DDR1 assumed.
Target sequence in this assay (Q08345 21-417): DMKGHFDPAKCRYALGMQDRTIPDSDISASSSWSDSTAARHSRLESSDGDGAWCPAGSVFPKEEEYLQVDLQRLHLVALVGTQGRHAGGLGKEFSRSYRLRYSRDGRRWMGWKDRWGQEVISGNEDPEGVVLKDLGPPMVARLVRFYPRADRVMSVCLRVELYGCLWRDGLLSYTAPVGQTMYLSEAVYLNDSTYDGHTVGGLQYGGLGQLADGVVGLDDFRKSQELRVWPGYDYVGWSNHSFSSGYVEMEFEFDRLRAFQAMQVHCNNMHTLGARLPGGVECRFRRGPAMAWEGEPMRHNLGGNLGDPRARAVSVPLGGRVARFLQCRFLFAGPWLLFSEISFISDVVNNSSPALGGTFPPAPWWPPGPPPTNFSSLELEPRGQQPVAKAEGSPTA
Assay [5] has as its target T3, human DDR2 ECD (human, UniProt Q16832 22-399).
T3 construct: extracellular domain; also called DDR2 ECD protein
T3 sequence (looked up): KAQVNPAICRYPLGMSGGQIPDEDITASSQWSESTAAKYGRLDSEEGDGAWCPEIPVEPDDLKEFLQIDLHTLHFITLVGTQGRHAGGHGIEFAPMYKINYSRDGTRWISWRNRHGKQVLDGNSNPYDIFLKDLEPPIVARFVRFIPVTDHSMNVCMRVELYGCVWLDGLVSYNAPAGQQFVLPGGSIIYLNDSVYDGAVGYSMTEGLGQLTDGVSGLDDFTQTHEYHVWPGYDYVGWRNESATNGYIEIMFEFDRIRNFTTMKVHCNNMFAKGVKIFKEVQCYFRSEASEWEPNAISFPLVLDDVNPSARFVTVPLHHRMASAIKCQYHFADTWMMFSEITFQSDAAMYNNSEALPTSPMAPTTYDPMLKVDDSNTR
The assay can be described thus: ELISA, DDR2 ECD coated, antibody at 1 ug/ml, HRP anti-rabbit detection. As to the method:
FIG. 19. Determination of cross-reactivity of a panel of monoclonal antibodies to human DDR2 using ELISA method. DDR1 or DDR2 ECD protein was coated on a high binding plate and each of monoclonal antibodies at 1 ug/ml concentration was added for binding detection with HRP conjugated anti-rabbit antibody (Jackson ImmuneResearch, PA).
To determination cross-reactivity of a panel of anti-human DDR1 monoclonal antibodies to human DDR2 ECD, an ELISA method was used. DDR1 ECD or DDR2 ECD protein was coated on a high binding plate and each of monoclonal antibodies was applied at 1 ug/ml concentration and binding was detected using HRP conjugated anti-rabbit antibody (Jackson ImmuneResearch, PA). Monoclonal antibodies DDR1-3; DDR1-9; DDR1-10; DDR1-14 and DDR1-33 were specific for DDR1 epitopes, while clones DDR1-13; DDR1-15; DDR1-21; DDR1-22 and DDR1-34 appear to recognize epitopes present on both DDR1 and DDR2 ECD.

Assay [6] deals with T1, Human DDR1 extracellular domain (ECD) …. The assay can be described thus: BLI (Octet 96-Red), antibody on protein A biosensors, recombinant DDR1 0.1-200 nM, 1:1 fit. As to the method: Binding affinity of anti-DDR1 monoclonal antibodies determined using Bio-layer interferometry (BLI) sensor-based Octet instrument. […] Following a short baseline in kinetics buffer, the loaded biosensors were exposed to a series of recombinant DDR1 protein at 0.1-200 nM and background subtraction was used to correct for sensor drifting. All experiments were performed with shaking at 1,000 rpm. Background wavelength shifts were measured from reference biosensors that were loaded only with antibody. Kinetic sensorgrams for each antibody are shown in FIGS. 10A-B. ForteBio's data analysis software was used to fit the data to a 1:1 binding model to extract an association rate and dissociation rate. The KD was calculated using the ratio of koff/kₒₙ and the estimated values of KD for DDR1 mAbs in Table 13.
Target sequence in this assay (Q08345 21-417): as the sequence (Q08345 21-417) above

Assay [7] has as its target DDR1 ECD fragment with deletion of DS domain (Homo sapiens (Human)) (UniProt Q08345). The assay can be described thus: ELISA, ECDΔDS-His coated at 2 µg/ml, antibody titrated.
For assay [8], the target named is T1, Human DDR1 extracellular domain (ECD) …. The assay can be described thus: ELISA, ECD-His coated at 2 µg/ml, antibody titrated. As to the method: (§1) FIG. 18A-C. Determination of DDR1 antibody binding to ECD and DS or DSL domains using ELISA method. Recombinant DDR1 extracellular (ECD) protein and domain proteins were coated on a high binding 96-well plates at concentration at 2 μg/ml. (FIG. 18A) DDR1-9Hu antibody titration was used to determine binding curves and EC₅₀s. […] (FIG. 18C)
(§2) Antibody binding domain determination. To determine the binding of DDR1-9 (FIG. 18B) and DDR1-14 (FIG. 18C), and humanized DDR1-9hu-Abl to ECD and DS or DSL domains an ELISA method was used (FIG. 18A). Recombinant DDR1 extracellular (ECD) protein and domain deletion proteins were coated onto high binding 96-well plates at concentration at 2 ug/ml. […] Recombinantly expressed domain proteins were coated on a high-binding 96-well plate (Fisher Scientific) at concentration at 2 ug/ml. A series of antibody titrations was used to determine binding EC50. Deletion of DSL domain of DDR1 ECD impaired the bindings of both DDR1-9 and DDR1-14 antibodies. […] Fragment with DSL deletion totally abolished DDR1-9, DDR1-14, and DDR1-9Hu binding.

Assay [9] shares this target. Kind of assay: ELISA, ECD protein coated at 2 ug/ml, antibody titration. As to the method: as §1, §2
Assay [10] concerns the target DDR1 ECD fragment with deletion of DS domain (Homo sapiens (Human)) (UniProt Q08345). The assay can be described thus: ELISA, domain deletion protein coated at 2 ug/ml, antibody titration.
Assay [11] addresses T1, Human DDR1 extracellular domain (ECD) …. Kind of assay: BLI (Octet); target not given, recombinant DDR1 assumed. For orientation: BLI is a label-free optical method that tracks binding on a fibre tip over time.

Turning to “mouse DDR1 ECD T58A (from UniProt Q03146 22-415) (receptor)”, the percent of WT collagen binding affinity in assay [1] amounted to 50%.

B1: DDR1-33 (antibody, V domains shown)
VH: QSVEESGGRLVTPGGSLTLTCTVSGFSLSSYDMSWVRQAPGKGLEWIGISWNSGFVDYASWAKGRFSISKTSTTVDLKITSPTTEDTATYFCARLGADDIYYFNLWGPGTLVTISS
VL: ELVMTQTPASVEAAVGGTVTIKCQASETISSRLAWYQQKPGQPPKLLIYQASKLPSGVPSRFKGTGSGTEYTLTISDLECADAATYYCQGCYYGGGSFYDSAFGGGTEVVVK
notes: Rabbit variable domains; also called anti-huDDR1 #33 antibody; DDR1-33K/DDR1-33H
Consider B1, for which the “EC50 (read off the curve)” value in assay [2] is ~0.02 µg/mL. The “EC50 (read off the curve)” value in assay [3] was ~0.02 µg/mL. For the same molecule, the EC50 in [4] amounted to 0.148 µg/mL. The binding result in assay [5] is given as “no binding (tested: 1 ug/ml)”. In addition, in assay [6], the Kd was 0.797 nM, the koff was determined as 0.000493 s⁻¹ and the kon was determined as 619000 M⁻¹ s⁻¹.

B2: DDR1-14 (antibody, V domains shown)
VH: QSVKESGGRLVTPGTPLTLTCTVSGIDLSYYAMSWVRQAPGKGLEYIGIINGRGDTGYATWAKGRFTISKTSTTVDLRITSPTIEDTATYFCAREDSAIPFIVGNYYGMDLWGPGTLVTVSS
VL: ELDMTQTPASVSEPVGGTVTIKCQASQSISSYLAWYQQKPGQPPKRLIFEASTLASGVPSRFSGSGSGTDFTLTISDLECADAATYYCQNNNGFSGSNFNNFGGGTEVEIK
notes: Rabbit variable domains; also called anti-huDDR1 antibody #14; DDR1-14K/DDR1-14H
As for B2, in assay [3], the binding result is listed as “no binding”. In assay [4], this molecule had an EC50 of 0.0713 µg/mL. Moreover, the binding result in [5] is listed as “no binding (tested: 1 ug/ml)”. In addition, in assay [6], the Kd was 0.113 nM, the koff stood at 2.27e-05 s⁻¹ and the kon came to 202000 M⁻¹ s⁻¹.

B3: DDR1-3 (antibody, V domains shown)
VH: QSVKESGGRLVTPGTPLTLTCTVSGIDLSSYAMSWVRQAPGKGLEWIGTINIGGGTWDATWARGRFTISRTSTTVDLKITSPTIGDTATYFCARDVDAHTLTYFTLWGPGTLVTISS
VL: ELVLTQTPASVSEPVGGTVTIKCQASQTISSWLSWYQQKPGQPPKLLIYYAFNLASGVPSRFKGSGSGTEFTLTISDLECADAATYYCQQGISSSNVDNVFGGGTEVVVK
notes: Rabbit variable domains; also called anti-huDDR1 antibody #3; DDR1-3K/DDR1-3H
For the molecule B3, the “EC50 (read off the curve)” value in [2] is ~0.02 µg/mL. For the same molecule, the binding result in assay [3] is reported as “no binding”. Moreover, in assay [4], it took 0.0598 µg/mL to reach a half-maximal effect (EC50). Besides, the binding result in assay [5] is “no binding (tested: 1 ug/ml)”. Also, in assay [6], the Kd was found to be 1.1 nM, the koff was found to be 0.00191 s⁻¹ and the kon was determined as 1.73e+06 M⁻¹ s⁻¹.

B4: DDR1-9 (antibody, V domains shown)
VH: QSLEESGGRLVTPGTPLTLTCTASGFSLNRYYMLWVRQAPGEGLEWIGTISYGDTTYYASWAKGRFTISKTSTTVDLKMTSPTTEDTATYFCARADTGDNGYLGLQLWGPGTLVTVSS
VL: ELVMTQTPASVEAAVGGTVTIKCQASQSIGSVLAWYQQKPGQRPKLLISGVFDLASGVPSRFKGSGSGTEFTLTISDLECADAATYYCQYIPYGSSPFGGGTEVVVK
notes: Rabbit variable domains; also called anti-huDDR1 antibody #9; DDR1-9K/DDR1-9H
The molecule B4 displayed an EC50 (read off the curve) in assay [7] of 0.2 µg/mL. The “EC50 (read off the curve)” value in [8] was ~0.2 µg/mL. The molecule also came in with a concentration giving a half-maximal response (EC50) in assay [4] of 0.183 µg/mL. Besides, the binding result in assay [5] is reported as “no binding (tested: 1 ug/ml)”. In addition, in assay [6], the Kd was determined as 0.236 nM, the off-rate constant (koff) stood at 7.35e-05 s⁻¹ and the on-rate constant (kon) was 311000 M⁻¹ s⁻¹.

B5: DDR1-9Hu-Ab1 (antibody, V domains shown)
VH: QVQLVESGGRVVQPGRSLRLSCTASGFSLNRYYMLWVRQAPGKGLEWIGTISYGDTTYYASWAKGRFTISRDNSKNTLYLQMNSLRAEDTAVYYCARADTGDNGYLGLQLWGQGTLVTVSS
VL: DIQMTQSPSSVSASVGDRVTITCQASQSIGSVLAWYQQKPGKAPKLLISGVFDLASGVPSRFSGSGSGTDFTLTISSLQPEDFATYYCQYIPYGSSPFGGGTKVEIK
notes: Humanized form of DDR1-9; also called DDR1-9hu-Abl; humanized DDR1-9hu antibody
In assay [9], B5 yielded an EC50 of 0.083 µg/mL. Also, the EC50 in assay [10] stood at 0.168 µg/mL. In addition, in assay [11], the dissociation constant (Kd) turned out to be 0.39 nM, the koff was determined as 6.52e-05 s⁻¹ and the association rate constant (kon) was determined as 165000 M⁻¹ s⁻¹.

In general, EC50 (read off the curve) refers to the concentration needed to bring the measured effect to its halfway point. The low end stands for a more potent agent, the high end for a less potent agent. What is called EC50 is the midpoint of the concentration-response curve. Usually Kd stands for the equilibrium constant for the complex coming apart. In general, koff refers to the rate constant with which the complex falls apart. The kon is the rate constant with which the complex forms.
